Laboratory results published in patent publication US6887705B1, “Tyrosine phosphorylated cleavage furrow-associated proteins (PSTPIPs)” (Genentech, Inc., priority 1997, dated 2005).
Like-named read-outs stand apart in the source and are kept apart here.

T1: full-length PSTPIP tagged with the FLAG epitope at the C-terminus (murine, UniProt P97814 1-415)
T1 construct: In vitro transcribed/translated in rabbit reticulocyte lysate, or expressed in COS cells
T1 sequence: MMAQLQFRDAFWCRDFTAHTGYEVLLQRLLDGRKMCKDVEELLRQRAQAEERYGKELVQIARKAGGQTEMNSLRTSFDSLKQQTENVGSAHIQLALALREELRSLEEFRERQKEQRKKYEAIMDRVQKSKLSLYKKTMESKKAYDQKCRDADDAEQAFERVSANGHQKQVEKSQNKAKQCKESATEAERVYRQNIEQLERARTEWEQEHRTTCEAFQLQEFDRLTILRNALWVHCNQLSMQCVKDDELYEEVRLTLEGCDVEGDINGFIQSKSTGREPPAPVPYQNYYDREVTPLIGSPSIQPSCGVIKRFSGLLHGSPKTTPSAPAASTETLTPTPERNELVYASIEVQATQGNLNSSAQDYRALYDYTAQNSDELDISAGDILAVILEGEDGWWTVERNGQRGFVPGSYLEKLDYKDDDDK

T2: PSTPIP (Mus musculus, UniProt P97814)
T2 construct: containing the full-length cDNA for PSTPIP (amino acids 2-415) was subcloned into pGEX4T-2; made in house; host or cells: E. coli DH5-alpha
T2 sequence (P97814 2-415): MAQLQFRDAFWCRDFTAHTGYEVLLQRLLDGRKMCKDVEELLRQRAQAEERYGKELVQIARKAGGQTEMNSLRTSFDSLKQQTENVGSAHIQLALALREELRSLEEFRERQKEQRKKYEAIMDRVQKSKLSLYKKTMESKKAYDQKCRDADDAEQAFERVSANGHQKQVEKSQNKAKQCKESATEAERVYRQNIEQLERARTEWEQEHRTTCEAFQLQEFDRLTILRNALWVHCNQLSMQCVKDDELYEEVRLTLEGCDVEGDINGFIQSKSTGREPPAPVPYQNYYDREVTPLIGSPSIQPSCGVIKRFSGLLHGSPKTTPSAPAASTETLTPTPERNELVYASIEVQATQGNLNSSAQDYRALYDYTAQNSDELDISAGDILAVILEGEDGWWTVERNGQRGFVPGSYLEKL


Columns and labels:
[1] = target: T1, full-length PSTPIP tagged with the FLAG …; test: peptide competition of the GST-PST-rich+CTH PTP HSCF pulldown of in vitro translated PSTPIP
Experimental: This was reacted for 1 hour at 4° C. and then the resin washed 6 times in HEPES/Triton binding buffer before SDS gel electrophoresis. The peptides were synthesized on an automated Milligen 9050 Peptide Synthesizer using standard solid phase chemistry with FMOC protected amino acids on a p-alkoxybenzyl alcohol resin. Dried peptides were re-suspended in the HEPES/Triton Binding buffer at a concentration of 10 mg/ml. Peptide inhibition was performed by adding the peptide first to the in vitro translation product and then the GST-fusion followed by the GSH-Sepharose. The binding/washing steps were as previously described. The peptides synthesized and the PTPs they were derived from were:
The region of PTP HSCF which interacts with PSTPIP was identified by producing deletion mutants of the enzyme missing either the 20 amino acid C-terminal domain which is highly conserved in all of the PEST PTPs (Yang et al. (1993) supra, Matthews et al., (1992) supra, Cheng et al., (1996) supra, Huang et al., (1996) supra, Aoki et al., (1996) Dosil et al., (1996) supra and Kim et al., (1996) supra) or both this domain as well as the longer proline, serine and threonine rich region C-terminal to the catalytic domain (FIG. 4A). FIG. 4B-C reveal that deletion of the C-terminal 20 amino acid homology domain of PTP HSCF completely abolished the interaction between PTP HSCF and PSTPIP. Because this region is conserved in all PEST PTPs, it is possible that both PTP PEST (Yang et al., (1993) supra) as well as PTP PEP (Matthews et al., (1992) supra) also interact with PSTPIP. In order to examine this possibility, as well as to examine if the 20 amino acid C-terminal region is sufficient for this interaction, 20 residue long peptides derived from the homologous C-terminal domain of three PEST PTPs were used to compete with the interaction between PTP HSCF and PSTPIP (FIG. 4D). In this form of the assay, a GST fusion derived from the PST-rich and C-terminal homology regions of the phosphatase was used to precipitate in vitro translated PSTPIP in the presence of varying amounts of peptides. […]

PSTPIP = target: T2, PSTPIP; test: In vitro GST pull-down binding of PTP HSCF forms to GST PSTPIP; design: species or system murine; conditions: 1 or 10 μg/ml GST PST PIP
Experimental: The binding was carried out according to the method of Wong and Johnson (Wong et al., J. Biol. Chem. 271(35):20981-20984 (1996)). Briefly, 1 μg of plasmid with either the PSTPIP protein or PTP HSCF under the control of the Sp6 promoter was in vitro transcribed/translated using the Promega™ TnT Rabbit Reticulocyte™ system. Samples were diluted in 50 mM HEPES, pH 7.2, 1% triton X 100, 10% glycerol, 100 mM NaCl, 5 mM EDTA and 2 μg/ml each of leupeptin, pepstatin, aprotinin, and PMSF. […] This was reacted for 1 hour at 4° C. and then the resin washed 6 times in HEPES/Triton binding buffer before SDS gel electrophoresis. The peptides were synthesized on an automated Milligen 9050 Peptide Synthesizer using standard solid phase chemistry with FMOC protected amino acids on a p-alkoxybenzyl alcohol resin. Dried peptides were re-suspended in the HEPES/Triton Binding buffer at a concentration of 10 mg/ml. Peptide inhibition was performed by adding the peptide first to the in vitro translation product and then the GST-fusion followed by the GSH-Sepharose. […]
In vitro binding analyses between various PTP HSCF and PST PIP constructs were performed as previously described (Spencer et al, (1997), supra). […] Samples were than reacted with GST fusion proteins at various concentrations, and the bound proteins were centrifuged using glutathione-sepharose beads and analyzed on SDS polyacrylamide gels. […]

[2] = test system: PST PIP - PTP HSCF association; test: Coprecipitation of PST PIP and PTP HSCF from co-transfected COS cells; format: cell-based
Experimental: COS-7 cells were transfected by electroporation. Briefly, 1.5×10^6 COS-7 cells were mixed with 24 μg total DNA in PBS and electroporated at 960 μF, […] (Bio-Rad™ Gene Pulsar™). Following electroporation, cells were seeded in 10 cm dishes and incubated for 3 days. 10-cm dishes of transfected COS cells were washed twice with ice-cold PBS, and lysed in 1 ml of M-RIPA (50 mM Tris 7.4, 1% NP40, 0.25% DOC, 150 mM NaCl, 1 mM sodium ortho-vanadate, 1 mM NaF plus Complete™ Protease Inhibitors (Boehringer Mannheim)). Lysates were incubated for 15 minutes with 100 μl UltraLink Immobilized Protein A/G™ (Pierce) at 4° C., followed by centrifugation for 5 minutes. Supernatants were collected and stored at −70° C. or directly immunoprecipitated. 5 μg of M2 or 12CA5 was added to 500 μl of lysate and incubated overnight at 4° C. Ultralink Protein A/G™ was added and incubation continued for 2 hours at 4° C. The immune complexes were washed 3 times with M-RIPA. The proteins were subjected to SDS-PAGE and transferred to nitrocellulose in 1X Transfer Buffer™ (Novex). Immunoblots were blocked overnight at 4° C. in 3% milk/PBS. To detect Flag-tagged PIP, blots were incubated with 10 μg/ml Bio-M2 (Biotinylated anti-FLAG monoclonal Ab, KODAK) followed by incubation in 10 μg/ml streptavidin-HRP (UBI). To detect HA-tagged PTPhscf, blots were incubated in anti-(HA)-peroxidase (Boehringer Mannheim) as per manufacturer's instructions. To detect phosphotyrosine, blots were incubated in HRP-conjugated 4G10 (anti-phosphotyrosine monoclonal, UBI) as per manufacture's instructions.
In vitro binding analyses between various PTP HSCF and PST PIP constructs were performed as previously described (Spencer et al, (1997), supra). Briefly, plasmids were transcribed and translated in vitro using the TnT Rabbit Reticulocyte Lysate System (Promega). Samples were diluted in 50 mM HEPES, pH 7.2, 1% triton X-100, 10% glycerol, 100 mM NaCl, and 2 μg/ml each of leupeptin, pepstatin, aprotinin and PMSF (lysis buffer). Samples were than reacted with GST fusion proteins at various concentrations, and the bound proteins were centrifuged using glutathione-sepharose beads and analyzed on SDS polyacrylamide gels. C-terminally-derived peptide inhibition studies were performed by incubating the GST fusion protein binding reactions in the presence of 10 μg/ml of the indicated peptides. Peptides were produced by FMOC-protected amino acids as previously described (Spencer et al, (1997), supra). In vivo interactions between various forms of PTP HSCF and PST PIP were also performed as previously described (Spencer et al, (1997), supra). Briefly, COS cells were transfected with various constructs, and after 48 hours, lysates were prepared and immunoprecipitated with antibodies to either the FLAG epitope contained at the C-terminus of PST PIP or an HA epitope contained at the N-terminus of PTP HSCF. The resultant blots were probed with anti-FLAG to detect PST PIP, anti-HA to detect PTP HSCF or anti-phosphotyrosine to detect levels of this modified amino acid in each protein.

Row | Molecule | lowest peptide concentration that effectively blocks the interaction [1] [nM] | binding of in vitro translated PTP HSCF forms to GST PSTPIP (PSTPIP) | in vivo association (coprecipitation) of PST PIP and PTP HSCF [2] | in vivo association (coprecipitation) of PST PIP and PTP HSCF ([2]; listed as PTP HSCF444+450)
1 | GFGNRCGKPKGPRDPPSEWT (Synthetic, FMOC chemistry; also called proline rich peptide derived from the C-terminal homology region of PTP PEST) [PXXP-PEST peptide (PTP PEST 761-780)] | ~800 | – | – | –
2 | R444+W450: PTP HSCF double mutant with R444 and W450 mutated to alanine (protein, left off: small tags and cut ends, PTP HSCF double mutant with R444 and W450 mutated to alanine) MSRHTDLVRSFLEQLEARDYREGAILAREFSDIKARSVAWKSEGVCSTKAGSRLGNTNKNRYKDVVAYDETRVILSLLQEEGHGDYINANFIRGIDGSQAYIATQGPLPHTLLDFWRLVWEFGVKVILMACQETENGRRKCERYWAREQEPLKAGPFCITLTKETTLNADITLRTLQVTFQKEFRSVHQLQYMSWPDHGVPSSSDHILTMVEEARCLQGLGPGPLCVHCSAGCGRTGVLCAVDYVRQLLLTQTIPPNFSLFQVVLEMRKQRPAAVQTEEQYRFLYHTVAQLFSRTLQDTSPHYQNLKENCAPICKEAFSLRTSSALPATSRPPGGVLRSISVPAPPTLPMADTYAVVQKRGASAGTGPGPRAPTSTDTPIYSQVAPRAQRPVAHTEDAQGTTALRRVPADQNSSGPDAYEEVTDGAQTGGLGFNLRIGRPKGPADPPAEATRV | – | stronger inhibitory effect on binding to PST PIP | as poor at interacting in vivo with PST PIP as the mutant which was missing the entire C-terminal proline rich domain | complete loss of coprecipitation
3 | GFNLRIGRPKGPRDPPAEWT (Synthetic, FMOC chemistry; also called proline rich peptide derived from the C-terminal homology region of PTP HSCF) [PXXP-HSCF peptide (PTP HSCF 432-451)] | ~800 | – | – | –
4 | deletion of the C-terminal 20 amino acid homology domain of PTP HSCF: PTP HSCF deletion mutant missing the C-terminal homology domain (protein, UniProt Q99952 1-440, looked up, fragment) MSRSLDSARSFLERLEARGGREGAVLAGEFSDIQACSAAWKADGVCSTVAGSRPENVRKNRYKDVLPYDQTRVILSLLQEEGHSDYINGNFIRGVDGSLAYIATQGPLPHTLLDFWRLVWEFGVKVILMACREIENGRKRCERYWAQEQEPLQTGLFCITLIKEKWLNEDIMLRTLKVTFQKESRSVYQLQYMSWPDRGVPSSPDHMLAMVEEARRLQGSGPEPLCVHCSAGCGRTGVLCTVDYVRQLLLTQMIPPDFSLFDVVLKMRKQRPAAVQTEEQYRFLYHTVAQMFCSTLQNASPHYQNIKENCAPLYDDALFLRTPQALLAIPRPPGGVLRSISVPGSPGHAMADTYAVVQKRGAPAGAGSGTQTGTGTGTGARSAEEAPLYSKVTPRAQRPGAHAEDARGTLPGRVPADQSPAGSGAYEDVAGGAQTGGLGF | – | completely abolished the interaction | – | –
5 | GFGNRFSKPKGPRNPPSAW (Synthetic, FMOC chemistry; also called proline rich peptide derived from the C-terminal homology region of PTP PEP) [PXXP-PEP peptide (PTP PEP 782-800)] | ~800 | – | – | –
